Here are results for 2 substances from PMC8565348.

In assay [1] the target is untagged BrxU (Escherichia fergusonii ATCC 35469). The assay can be described thus: SEC; analytical SEC, Superdex 200 Increase 5/150, 20 mM Tris-HCl pH 7.9, 150 mM NaCl; 500 nM BrxU pre-incubated at 37°C for 15 min; no nucleotide, no MgSO4; dimer to monomers. A general note: Size exclusion chromatography separates by hydrodynamic size, large species first.
In assay [2] the target is His6-BrxU WT (Escherichia fergusonii ATCC 35469). The experiment in a line: SEC; analytical SEC, Superdex 200 Increase 5/150, 20 mM Tris-HCl pH 7.9, 150 mM NaCl; 500 nM BrxU pre-incubated at 37°C for 15 min with 10 mM MgSO4, no nucleotide; dimer to monomers.

By stoichiometry N is commonly meant a count of units in the complex or per binding partner.

In the case of untagged BrxU (enzyme), the stoichiometry N in assay [1] stood at 2.
Consider His6-BrxU WT (enzyme), for which the stoichiometry N in assay [2] is 2.
